{"source": "patent US20250101086A1", "about": "(RESEARCH FOUNDATION OF THE CITY UNIVERSITY OF NEW YORK, published 2025)", "binders": {"B1": {"name": "1D11 recombinant monoclonal antibody (re-cloned from the second most abundant VH and VL sequences) (antibody, V domains shown)", "VH": "QSLVESGGGLVQPEGSLTLTCKASGFSFSSGYDMCWVRQAPGKGLEYIACIDAGDDITHYASWVKGRFTVSKTSSTTVTLQLNSLTVADTATYFCGRFWDLWGPGTLVTVSS", "VL": "SVLTQTPSPVSAAVGGTVTINCQSSQSVYDSTWLGWYQQKPGQPPKLLIYKASNLASGVPSRFKGSGSGTHFTLTISDLECDDAATYYCVGGYSGSVDNWAFGGGTEVVVK", "notes": "Rabbit recombinant monoclonal IgG; the rabbit constant regions are cited to the literature; The variable fragments were cloned into pcDNA3.4 and expressed in mouse cells; also called ID11; new rMAb"}, "B2": {"name": "antibody with VH SEQ ID NO: 5 and VL SEQ ID NO: 6 (antibody, V domains shown)", "VH": "QSVEESGGRLVTPGTPLTLTCTVSGFPLSSYSMAWVRQAPGKGLEYIGFINTDGSAYYASWAKGRITISKTSTTVELKITSPTTEDTATYFCGTGNIWGPGTLVTVSS", "VL": "AQVLTQTPSSVSAAVGGTVTINCQASQSVSNNNVLAWFQQKPGQPPKRLIYSALTLDSGVPSRFKGSGSGTHFTLTISGVQCDDAATYYCAGGYDCSSNDCIAFGGGTEVVVK"}, "B3": {"name": "antibody with VH SEQ ID NO: 7 and VL SEQ ID NO: 8 (antibody, V domains shown)", "VH": "QSVEESGGRLVTPGTPLTLTCTVSGFSLSSYSMGWVRQAPGKGLEYIGMIISNNSTYYASWAKGRITISKTSTTVELKITSPTTEDTATYFCGTGNIWGPGTLVTVSS", "VL": "AQVLTQTPASVSAAVGGTVTINCQASQSTSNNNALAWFQQKPGQPPKRLIYSALTLDSGVPSRFKGSGSGTHFTLTISGVQCDDAATYYCAGGYDCSSNDCITFGGGTEVVVK"}, "B4": {"name": "antibody with VH SEQ ID NO: 3 and VL SEQ ID NO: 4 (antibody, V domains shown)", "VH": "QSLEESGGGLFKPTDTLTLTCTVSGIDLSSYAMIWVRQAPGKGLEWIGYIWSSGRIWYASWAKGRFTISRTSTTVDLKLASPTTEDTATYFCARLWDIWGPGTLVTVSS", "VL": "AQVLTQTPSSVSAAVGGTVTISCQASQSLYNGVNLAWYQQKPGQPPKLLIFGASNLESGVSSRFRGSGSGTQFTLTISGVQCDDAATYYCLGEFSCSSADCLAFGGGTEVVVK"}}, "key": {"[1]": {"biological_target": "T1, recombinant VlsE protein (of strain B31) (Borrelia burgdorferi strain B31)", "T1 construct": "domain: vlsE cassette region (including the IR1 through VR6 regions); Preparation of about 65% purity; Used as immunogen, as ELISA antigen and on beads; also called VISE; recombinant B31 VlsE", "assay": "titration on VlsE, given as ED50; method not given"}, "IR6 peptide": {"biological_target": "T2, IR6 peptide (Borrelia burgdorferi strain B31, biotin-labeled on the N terminus)", "T2 construct": "Synthetic peptide based on VlsE of strain B31 (GenBank U76405); also called invariant region 6", "T2 peptide": "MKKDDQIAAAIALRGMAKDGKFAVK", "assay": "ELISA of purified rMAb on coated peptide"}, "IR4 peptide": {"biological_target": "T3, IR4 peptide (Borrelia burgdorferi strain B31, biotin-labeled on the N terminus)", "T3 construct": "also called invariant region 4", "T3 peptide": "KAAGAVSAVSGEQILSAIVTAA", "assay": "not given; it says that supporting data are given elsewhere in the disclosure (ELISA)"}}, "data": [{"binder": "B1", "values": [{"measurement": "EC50", "setting": "[1]", "result": 0.0109, "unit": "µg/mL"}, {"measurement": "binding result", "setting": "IR6 peptide", "result": "binds"}]}, {"binder": "B2", "values": [{"measurement": "binding result", "setting": "IR4 peptide", "result": "binds"}]}, {"binder": "B3", "values": [{"measurement": "binding result", "setting": "IR4 peptide", "result": "binds"}]}, {"binder": "B4", "values": [{"measurement": "binding result", "setting": "IR4 peptide", "result": "binds"}]}]}
